Results on one protein are retold here after patent publication US20230183713A1, “SITE-SPECIFIC RECOMBINASES FOR EFFICIENT AND SPECIFIC GENOME EDITING” (TECHNISCHE UNIVERSITÄt DRESDEN, published 2023).

Series [1] concerns the target T1, Cre recombinase monomer with W315C mutation.
T1 chain: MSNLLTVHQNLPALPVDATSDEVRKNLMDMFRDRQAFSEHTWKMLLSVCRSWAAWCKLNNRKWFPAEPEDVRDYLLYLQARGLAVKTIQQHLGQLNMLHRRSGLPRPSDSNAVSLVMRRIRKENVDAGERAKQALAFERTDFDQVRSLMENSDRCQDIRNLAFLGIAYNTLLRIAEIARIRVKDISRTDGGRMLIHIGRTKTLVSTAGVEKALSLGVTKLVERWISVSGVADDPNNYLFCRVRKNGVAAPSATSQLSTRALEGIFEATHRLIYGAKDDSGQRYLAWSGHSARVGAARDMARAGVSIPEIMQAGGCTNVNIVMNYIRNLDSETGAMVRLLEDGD

In series [2] the target is T2, Cre recombinase monomer with W315L mutation.
T2 chain: T1 chain with C315L

Series [3] concerns the target T3, Cre recombinase monomer with W315T mutation.
T3 chain: T1 chain with C315T

The target of series [4] is T4, Cre recombinase monomer with Y324I mutation.
T4 chain: T1 chain with C315W, Y324I

Series [5] deals with T5, Cre recombinase monomer with Y324K mutation.
T5 chain: T1 chain with C315W, Y324K

The target in series [6] is T6, Cre recombinase monomer with Y324L mutation.
T6 chain: T1 chain with C315W, Y324L

Series [7] deals with T7, Cre recombinase monomer with Y324T mutation.
T7 chain: T1 chain with C315W, Y324T

Series [8] addresses T8, Cre recombinase monomer with Y324V mutation.
T8 chain: T1 chain with C315W, Y324V

Residue numbers refer to the chain shown, from its start. Numbers in names are those of the source.

B1: Cre recombinase monomer with Q311R mutation (protein)
chain: T1 chain with Q311R, C315W
In the case of B1, the “Median dimer activity (recombination on loxP)” value in series [1] amounted to 84%; in series [2], 68%; in series [3], 66%; in series [4], 96%; in series [5] it was 85%; in series [6], 95%. For the same protein, the “Median dimer activity (recombination on loxP)” value in series [7] came to 85%; in series [8], 90%.
